According to patent CN116655791A (ZHEJIANG CHUQI BIOLOGICAL TECH CO LTD, dated 2023):

Target: T1, 人泌乳素受体-ECD蛋白 (25-234aa, Factor Xa site, 6xHis) (human)
T1 chain: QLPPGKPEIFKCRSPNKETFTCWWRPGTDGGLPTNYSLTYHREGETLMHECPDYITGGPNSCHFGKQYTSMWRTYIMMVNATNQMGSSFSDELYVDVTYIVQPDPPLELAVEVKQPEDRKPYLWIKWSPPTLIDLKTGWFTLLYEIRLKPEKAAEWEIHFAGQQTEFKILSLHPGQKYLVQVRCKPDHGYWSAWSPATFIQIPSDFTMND
Test: indirect ELISA on coated PRLR-ECD

EC50: 4.6 ng/mL
B1: 抗泌乳素受体的纳米抗体融合蛋白CQ24-Fc (Fc fusion)
chain: SQVQLVESGGGSVQAGGSLRLSCVASGYTRRGNCLGWFRQAPGKEREGVASIYASSGWTSYADSVKGRFTISLDNAKTMVYLQMNSLNPEDTAMYFCAAADTGLCGLGARIYSYWGQGTQVTVSSDKTHTCPPCPAPEAAGGPSVFLFPPKPKDTLMISRTPEVTCVVVDVSHEDPEVKFNWYVDGVEVHNAKTKPREEQYNSTYRVVSVLTVLHQDWLNGKEYKCKVSNKALPAPIEKTISKAKGQPREPQVYTLPPSREEMTKNQVSLTCLVKGFYPSDIAVEWESNGQPENNYKTTPPVLDSDGSFFLYSKLTVDKSRWQQGNVFSCSVMHEALHNHYTQKSLSLSLGK
notes: the signal peptide is left out here; also called CQ24纳米抗体; CQ24-VHH
